± gives the half width of the 95% confidence interval.
Legend:
[1] = folding stability dG unfold from trypsin proteolysis; higher = more stable
Procedure, shortened: (§1)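 Designed mini-proteins (under 80 residues, no cysteine) in a PA-tagged cDNA display construct were digested with trypsin and chymotrypsin. Each protease was used at 11 concentrations (threefold dilutions) plus a no-protease condition, followed by sequencing. K50 was inferred by Bayesian fitting of sequencing counts, and unfolding free energy was derived against a sequence-predicted unfolded-state K50 and a shared folded-state K50, per protease or combined. Only designs with AlphaFold2 dimer inter-PAE above 15 were kept.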

[2] = folding stability dG unfold from chymotrypsin proteolysis; higher = more stable
Procedure, shortened: as §1

[3] = folding stability dG unfold (combined trypsin and chymotrypsin); higher = more stable
Procedure, shortened: as §1

Row | Sequence | folding stability dG unfold [1] | folding stability dG unfold [2] | folding stability dG unfold [3]
1 | SMEIRIKEVNEDGYLVIEIRVLSEDGKELTPEEVEELAEEIAAELKEKFPDVKVTVERLEDGTVRIVVEPSA [r9_485_TrROS_Hall] | 3.19 ± 0.15 kcal/mol | 2.65 ± 0.15 kcal/mol | 2.89 ± 0.22 kcal/mol
2 | SKKKVKTETVTLKIVNEKTGEEVELTLEFYEDGTVVKVTFPDGTTKEIKVGKTLEELLSLPPNAKIELIPSA [r9_781_TrROS_Hall] | 0.315 ± 0.12 kcal/mol | 2 ± 0.11 kcal/mol | 1.56 ± 0.11 kcal/mol
3 | SAGGMLIVRITVDLTFPVIHPDNRPSLVSVPLPITLPFSTPEEARAFAEALSKLFDAPVSLEVLPPDGSAGG [r13_320_TrMRF] | 3.62 ± 0.13 kcal/mol | 4.4 ± 0.094 kcal/mol | 4.16 ± 0.12 kcal/mol
4 | SAGGEKLETFPFKGDDDREVTLVRFEGEDRILLLVYDPDTDKVLLIAPDAIAEIDLKTGEAKVILKKSSAGG [r13_416_TrMRF] | 1.66 ± 0.046 kcal/mol | 2.111 ± 0.016 kcal/mol | 1.98 ± 0.049 kcal/mol
5 | SAGGSAGGTITLPGVTVEITEENGTLTIRVTSPDGRTLTRTITLPAGETVTVTDANGKTVTVRLSAGGSAGG [r6_806_TrROS_Hall] | 2.8 ± 0.073 kcal/mol | 3.34 ± 0.059 kcal/mol | 3.18 ± 0.11 kcal/mol
6 | SAGGPNKPIKIKIMIWRDPGGWYIAIRIPDGNTRMFKSPEQIKSILEKFPGLKIDEIEIIPPDQMKKLSAGG [r13_730_TrROS] | 1.7 ± 0.025 kcal/mol | 2.23 ± 0.073 kcal/mol | 2 ± 0.079 kcal/mol
7 | SMKPNEKFPSLEEVKEAAKRIAEEIEKKTGKKIEVEVKVETVKKEDGKEVVKITIVDKKTKKVIKEIEIKSA [r9_794_TrROS_Hall] | 2.18 ± 0.096 kcal/mol | 0.783 ± 0.076 kcal/mol | 1.58 ± 0.12 kcal/mol
8 | KIHILPPGEPAKDPNGKTYEFPNMRIHRNPKNGKPTIYIPMDPEARDQGNPEALQWLRELVEELNIDKVEPS [r1_438_TrROS] | -0.623 ± 0.45 kcal/mol | 0.0516 ± 0.16 kcal/mol | -0.156 ± 0.16 kcal/mol
9 | SAGGSAMPVVEIEIEVSEEEAEELVKKLKELFPEVEEVEVERTEDGLRIRVRVKLPPLTEEELKAKSAGGSA [r15_166_TrROS_Hall] | 1.17 ± 0.026 kcal/mol | 0.987 ± 0.042 kcal/mol | 1.04 ± 0.054 kcal/mol
10 | SAGGSAGGSMVLRIKTEDGEEIEIELPEELKELSAEEIAELLGLDEVKVVEVEVVEPEEEEEESAGGSAGGS [r12_411_TrROS_Hall] | 0.256 ± 0.043 kcal/mol | 2.01 ± 0.05 kcal/mol | 1.66 ± 0.19 kcal/mol
11 | SAMRIRIEVETRTGPDGRKYVVVRIRDEKTGEELELVFESREEAEEAAKALAEELKKAGYEIEVEIRPPSAG [r14_263_TrROS_Hall] | 5.23 ± 0.47 kcal/mol | 5.21 ± 0.2 kcal/mol | 5.21 ± 0.19 kcal/mol
12 | SAGGSAGGSPEEFEIKIVEPTPIEINPNGSVSLTFTVPNGWYLRIMIMRPPDGNPQPMIMIIPSAGGSAGGS [r20_240_TrROS] | 2.86 ± 0.086 kcal/mol | 3.54 ± 0.062 kcal/mol | 3.22 ± 0.11 kcal/mol
13 | SAGGSAGGSAGMRLVTFTVPGSAISVSTPGGATVVSVEKLPGDLVRVTVEIPEGAPPGLQSAGGSAGGSAGG [r17_48_JUSTAS] | 1.12 ± 0.013 kcal/mol | 1.76 ± 0.029 kcal/mol | 1.56 ± 0.046 kcal/mol
14 | SAGGSAGGSAGGPTIVIKDVKGLTPEQAEALARDLLKELGLEDADVRLERGEDGDLTFTYSAGGSAGGSAGG [r7_810_TrMRF] | 1.68 ± 0.034 kcal/mol | 0.79 ± 0.14 kcal/mol | 1.26 ± 0.11 kcal/mol
15 | SAGGSAGGSNGKKIEIDIFWPRPMAETIVKELWKGSNIKPIKIKVIPMPEDDPKYKEFMDKLKSAGGSAGGS [r12_649_TrROS] | 0.109 ± 0.079 kcal/mol | 0.188 ± 0.12 kcal/mol | 0.247 ± 0.12 kcal/mol
16 | PPGYRPIEIEIPMKVESIEEAKEEVLNFAHELAEAFPNITDINVEVDKIDPNNGYIFAKITIYVGDKTITIS [r1_52_TrROS] | 0.424 ± 0.13 kcal/mol | 2.04 ± 0.081 kcal/mol | 1.8 ± 0.43 kcal/mol
17 | SAGGNDDNWRVIEFTFSPGNIKPEQIRSLLENAGADRITDVEVQRTPNSYTVTFYFPNGKPVEITIPSAGGS [r8_86_TrROS] | 1.65 ± 0.038 kcal/mol | 2.37 ± 0.1 kcal/mol | 2.13 ± 0.13 kcal/mol
18 | SAGGAPLPLPPDVPVTLTFTEVTFSLNESGETGYTVSTTTVPVPVEPVPPVPLPVLVVWPDGSAVALLSAGG [r13_401_JUSTAS] | 1.3 ± 0.067 kcal/mol | 2.23 ± 0.051 kcal/mol | 1.89 ± 0.059 kcal/mol
19 | SAGGPEIVKLDFTLDPNGNLVFTFELKDGTKYEIKINPENPTIEIKEIEKIEPKPIPEDDPELLKEKSAGGS [r16_482_TrMRF] | 1.54 ± 0.17 kcal/mol | 3.24 ± 0.059 kcal/mol | 2.49 ± 0.78 kcal/mol
20 | SAGGGSVPAEHLVSVSYEKPPWSDEPVITVTALKGGKPVTFTIPSSLSEEEALEAVEKAIAAGPFALGSAGG [r13_225_JUSTAS] | 0.638 ± 0.055 kcal/mol | 0.579 ± 0.13 kcal/mol | 0.675 ± 0.099 kcal/mol
21 | SAGGSAGGSGFKIVKVDTETGYVYVEVPKSAEKELEKLPSVEKVEEKEDSVLYRLRIPPFAALSAGGSAGGS [r12_694_TrMRF] | 1.78 ± 0.069 kcal/mol | 1.95 ± 0.086 kcal/mol | 1.81 ± 0.19 kcal/mol

Row | Sequence | folding stability dG unfold [1] | folding stability dG unfold [2] | folding stability dG unfold [3]
22 | SAGGSAGGSAGGGSIVIENPEKGLTLTYDPATGNVTITFPGGERKVSPVGSIEKAKELLSAGGSAGGSAGGS [r10_849_JUSTAS] | 0.787 ± 0.059 kcal/mol | 1.15 ± 0.028 kcal/mol | 1.02 ± 0.06 kcal/mol
23 | SAGGKKKVKITKITSIDKKNGVITLEIEDPKTKKKYKIKAKVVKLKNGKKLLVIEIEVNGKKIKIVFKSAGG [r13_993_TrROS_Hall] | 2.49 ± 0.15 kcal/mol | 4.23 ± 0.16 kcal/mol | 3.81 ± 0.47 kcal/mol
24 | SAGNIQIEPTDGKWRIRITYWMPDPDEITPDTFKNLLRNLGLPIKDIDIEPEPNPNGQRYVTAEIWIPVSAG [r5_922_TrROS] | 2.84 ± 0.043 kcal/mol | 3.34 ± 0.071 kcal/mol | 3.23 ± 0.059 kcal/mol
25 | SAGGSAGGGSLTVTTDPDGTQTVTLPDGRTFTFTNPYGVTRLVRARPDDGFEVWLQVDGKWYPLSAGGSAGG [r6_903_TrMRF] | 0.96 ± 0.022 kcal/mol | 1.88 ± 0.053 kcal/mol | 1.57 ± 0.031 kcal/mol
26 | SAGGSMADPGKAKAKVVIGGVEFEFDTTVTVADDPDGRKVLIFTFPDGTPVEIPLEDAEKILEVEGSAGGSA [r2_297_TrMRF] | 0.996 ± 0.024 kcal/mol | 1.66 ± 0.03 kcal/mol | 1.43 ± 0.067 kcal/mol
27 | SAGGSAGGMKQYIVTVTLKSPDGTEHTIELETESLDEVKEKLKNLPDPNLELVELKVVPKEELASAGGSAGG [r6_297_JUSTAS] | 2.39 ± 0.098 kcal/mol | 2.21 ± 0.035 kcal/mol | 2.25 ± 0.13 kcal/mol
28 | SAGGSAGGSAGGSKKTLTLPITITVTVTYTNEDGSTTETTYTYTLTINFEVSENDTGLLSAGGSAGGSAGGS [r10_1133_TrMRF] | 2.23 ± 0.062 kcal/mol | 3.269 ± 0.013 kcal/mol | 2.92 ± 0.071 kcal/mol
29 | SAGGTAEELAKNIADNLQKAGWIKKVEVEVHPSPDGNIMVRIEIKIEPPPPPPPPKVEYDENGKPRYDSAGG [r13_957_TrROS] | 1.04 ± 0.12 kcal/mol | 0.662 ± 0.23 kcal/mol | 0.924 ± 0.39 kcal/mol
30 | SAGGMKVYKTPDKITIELTHPETGEKAKGTYTPSTGKMTITYPNKLTVTISVDSNGNLTPVEKKPLLSAGGS [r16_127_JUSTAS] | 0.592 ± 0.046 kcal/mol | 0.577 ± 0.1 kcal/mol | 0.626 ± 0.069 kcal/mol
31 | SAGGSAKRVIVIGSKEERERAREAAEKENLEVVEIEGPVEEALAKLKELFPEIDEIVIVLPEEEEESAGGSA [r15_712_TrROS_Hall] | 0.68 ± 0.14 kcal/mol | 0.768 ± 0.14 kcal/mol | 0.899 ± 0.19 kcal/mol
32 | SAGGSMEVKVVSYDEEKGVLVIEVDEDETVEELVERLRSIPGLKVEVEVVEKDGKLYVVIRVEKKESAGGSA [r2_44_TrROS_Hall] | 3.17 ± 0.13 kcal/mol | 4.27 ± 0.09 kcal/mol | 3.98 ± 0.18 kcal/mol
33 | SAGGSAGGSAKIKVLIKITNKDGKKKEILLEAETEEEALEAAKKLAEKEINGKKYKIEIKPLSAGGSAGGSA [r18_457_TrROS_Hall] | 1.83 ± 0.074 kcal/mol | 2.08 ± 0.044 kcal/mol | 1.96 ± 0.11 kcal/mol
34 | SAGGMKLTPEAKKLAEELKKEGKKVKIEKKDGYYVLTVDGKVYKSKEDMEKAAKDPNVKKVIVIKLPSAGGS [r16_275_TrROS_Hall] | 0.519 ± 0.13 kcal/mol | 1.95 ± 0.18 kcal/mol | 1.46 ± 0.18 kcal/mol
35 | SAMKEGETVRIELVVVVPPGASVEELADALRALFGPDAEIRVEVEEVTVEVDGKTYRVLTVRVEIRLRKSAG [r14_633_TrROS_Hall] | 3.44 ± 0.05 kcal/mol | 4.5 ± 0.059 kcal/mol | 4.18 ± 0.057 kcal/mol
36 | SASEDETVETTTTTTSTFTLPNGETVTLTTTTKTTEKILPETGEVVESTTTTTTVTRTDASTTTTVATSSAG [r14_333_JUSTAS] | 1.12 ± 0.068 kcal/mol | 1.22 ± 0.082 kcal/mol | 1.27 ± 0.11 kcal/mol
37 | SAGGPKKITIHITEMYRNKNGPYYYRVEIRDGGKPKEYNFPFDSPDEMLDNIEKLADELGLKVEIEPFSAGG [r13_750_TrROS] | 1.55 ± 0.06 kcal/mol | 2.16 ± 0.16 kcal/mol | 1.88 ± 0.22 kcal/mol
38 | SAMLVVELEVDLPELKYMTPEEAEEIAEALAVEAAKELFPESDVKVKEVVVEPEPETGKLKVTVVLENESAG [r14_310_TrMRF] | 2.18 ± 0.13 kcal/mol | 2.51 ± 0.048 kcal/mol | 2.46 ± 0.081 kcal/mol
39 | SAFKILPDGTILIDIGEDEAKKLSIEEIEALVKEIEKLLPKDYKVEIHIIPKKPIPKPPLIPGKDNLIGSAG [r14_312_TrMRF] | 1.94 ± 0.063 kcal/mol | 1.97 ± 0.041 kcal/mol | 1.91 ± 0.071 kcal/mol
40 | SAGSSPSLVLKVEIPVEIKEKRKFLLPNGETKTELTTRTITHTIVVEAGTDPAKLEEALALAEEIKEKKSAG [r14_830_JUSTAS] | -0.85 ± 0.57 kcal/mol | 0.00535 ± 0.31 kcal/mol | -0.276 ± 0.25 kcal/mol
41 | STMTLKELKERFPGFPPEMIEEIAERAENDPPGEEVEIYIRFPNGYPIYITVTKPDTVTIQFIPPGEPVYSA [r9_1024_TrROS] | 1.23 ± 0.089 kcal/mol | 1.01 ± 0.22 kcal/mol | 1.24 ± 0.26 kcal/mol
42 | MTITVRFTFQTEEEAEKAAEEVKRKLAEELGLSEEVLKKIPVEVKRTETGSENGEPVYEVTVTFKLPEELLS [r1_81_JUSTAS] | 4.17 ± 0.14 kcal/mol | 4.94 ± 0.084 kcal/mol | 4.84 ± 0.084 kcal/mol

— the supplement of paper PMC12764529
